Laboratory results published in the MegaScale stability set (Tsuboyama et al. 2023).

B1: 6NMW (parent)
chain: QGDIVVALYPYDGIHPDDLSFKKGEKMKVLEEHGEWWKAKSLLTKKEGFIPSNYVAKLN

Variants of: B1
Experiment: folding stability dG (cDNA display proteolysis); higher = more stable
Conditions: PBS, room temperature
In the case of V6S, the “folding stability dG” value is reported as 1.15 kcal/mol. For V6H, the “folding stability dG” value was 1.5 kcal/mol. With V6Y the “folding stability dG” value was 3.49 kcal/mol. With V6K the “folding stability dG” value was 1.52 kcal/mol. For V6W, the “folding stability dG” value was 2.05 kcal/mol. For V6Q, the “folding stability dG” value was 2.01 kcal/mol. In the case of V6M, the “folding stability dG” value is reported as 2.59 kcal/mol. For V6D, the “folding stability dG” value was -0.164 kcal/mol. For V6A, the “folding stability dG” value was 1.29 kcal/mol. For V6F, the “folding stability dG” value was 2.89 kcal/mol. With V6G the “folding stability dG” value was 0.392 kcal/mol. For V6R, the “folding stability dG” value was 1.9 kcal/mol. In the case of V6T, the “folding stability dG” value is reported as 2.18 kcal/mol. With V6L the “folding stability dG” value was 2.18 kcal/mol. In the case of V6I, the “folding stability dG” value is reported as 4.06 kcal/mol. For V6C, the “folding stability dG” value was 3.01 kcal/mol. In the case of V6E, the “folding stability dG” value is reported as 2.18 kcal/mol. In the case of V6N, the “folding stability dG” value is reported as 0.282 kcal/mol. In the case of Y9K, the “folding stability dG” value is reported as 3.61 kcal/mol. For Y9T, the “folding stability dG” value was 1.87 kcal/mol. For Y9E, the “folding stability dG” value was 2.37 kcal/mol. With Y9V the “folding stability dG” value was 2.5 kcal/mol. In the case of Y9S, the “folding stability dG” value is reported as 1.95 kcal/mol. For Y9N, the “folding stability dG” value was 1.61 kcal/mol. With Y9H the “folding stability dG” value was 2.81 kcal/mol. With Y9C the “folding stability dG” value was 4.44 kcal/mol. With Y9Q the “folding stability dG” value was 3.15 kcal/mol. In the case of Y9R, the “folding stability dG” value is reported as 4.07 kcal/mol. In the case of Y9G, the “folding stability dG” value is reported as 1.46 kcal/mol. In the case of Y9D, the “folding stability dG” value is reported as 1.08 kcal/mol. For Y9M, the “folding stability dG” value was 3.43 kcal/mol. With Y9W the “folding stability dG” value was 3.66 kcal/mol. For Y9L, the “folding stability dG” value was 3.06 kcal/mol. With Y9I the “folding stability dG” value was 2.72 kcal/mol. For Y9A, the “folding stability dG” value was 2.74 kcal/mol. For Y9F, the “folding stability dG” value was 3.72 kcal/mol. In the case of V5S, the “folding stability dG” value is reported as 0.271 kcal/mol. For V5Q, the “folding stability dG” value was -0.613 kcal/mol. With V5E the “folding stability dG” value was -0.712 kcal/mol. In the case of V5L, the “folding stability dG” value is reported as 1.66 kcal/mol. With V5G the “folding stability dG” value was -0.073 kcal/mol. With V5I the “folding stability dG” value was 2.37 kcal/mol. In the case of V5W, the “folding stability dG” value is reported as 4.11 kcal/mol. In the case of V5A, the “folding stability dG” value is reported as 2.41 kcal/mol. With V5C the “folding stability dG” value was 3.86 kcal/mol. With V5M the “folding stability dG” value was 1.65 kcal/mol. For V5T, the “folding stability dG” value was 0.383 kcal/mol. With V5R the “folding stability dG” value was 0.357 kcal/mol. In the case of V5Y, the “folding stability dG” value is reported as 4.22 kcal/mol. With V5H the “folding stability dG” value was 1.41 kcal/mol. For V5F, the “folding stability dG” value was 3.21 kcal/mol. With V5K the “folding stability dG” value was -0.356 kcal/mol. In the case of Q1G, the “folding stability dG” value is reported as 3.67 kcal/mol. For Q1R, the “folding stability dG” value was 3.79 kcal/mol. For Q1L, the “folding stability dG” value was 4.29 kcal/mol. In the case of Q1S, the “folding stability dG” value is reported as 3.89 kcal/mol. For Q1M, the “folding stability dG” value was 3.74 kcal/mol. For Q1D, the “folding stability dG” value was 3.76 kcal/mol. In the case of Q1P, the “folding stability dG” value is reported as 3.96 kcal/mol. In the case of Q1K, the “folding stability dG” value is reported as 4.1 kcal/mol. With Q1T the “folding stability dG” value was 4.18 kcal/mol. For Q1C, the “folding stability dG” value was 4.65 kcal/mol. For Q1E, the “folding stability dG” value was 3.97 kcal/mol. For Q1A, the “folding stability dG” value was 3.87 kcal/mol. In the case of Q1H, the “folding stability dG” value is reported as 3.79 kcal/mol. In the case of Q1N, the “folding stability dG” value is reported as 3.69 kcal/mol. With Q1Y the “folding stability dG” value was 4.04 kcal/mol. In the case of Q1W, the “folding stability dG” value is reported as 4.06 kcal/mol. For Q1F, the “folding stability dG” value was 3.8 kcal/mol. For A7V, the “folding stability dG” value was 0.268 kcal/mol. With A7L the “folding stability dG” value was -0.675 kcal/mol. For A7G, the “folding stability dG” value was 2.64 kcal/mol. For A7S, the “folding stability dG” value was 1.39 kcal/mol. For A7E, the “folding stability dG” value was 0.11 kcal/mol. In the case of A7M, the “folding stability dG” value is reported as 0.441 kcal/mol. For A7F, the “folding stability dG” value was -0.602 kcal/mol. For A7Y, the “folding stability dG” value was -0.494 kcal/mol. In the case of A7I, the “folding stability dG” value is reported as -0.263 kcal/mol. With A7T the “folding stability dG” value was 1.07 kcal/mol. In the case of A7C, the “folding stability dG” value is reported as 1.42 kcal/mol. In the case of G13H, the “folding stability dG” value is reported as 0.829 kcal/mol. For G13V, the “folding stability dG” value was 1.14 kcal/mol. In the case of G13T, the “folding stability dG” value is reported as 1.74 kcal/mol. With G13Y the “folding stability dG” value was 0.268 kcal/mol. With G13P the “folding stability dG” value was 2.3 kcal/mol. For G13F, the “folding stability dG” value was 0.38 kcal/mol. For G13R, the “folding stability dG” value was 2.26 kcal/mol. With G13S the “folding stability dG” value was 3.39 kcal/mol. In the case of G13K, the “folding stability dG” value is reported as 2.6 kcal/mol. In the case of G13M, the “folding stability dG” value is reported as 1.91 kcal/mol. For G13Q, the “folding stability dG” value was 2.01 kcal/mol. In the case of G13C, the “folding stability dG” value is reported as 1.96 kcal/mol. In the case of G13N, the “folding stability dG” value is reported as 1.32 kcal/mol. In the case of G13D, the “folding stability dG” value is reported as 0.145 kcal/mol. For G13I, the “folding stability dG” value was 0.929 kcal/mol. For G13W, the “folding stability dG” value was 0.736 kcal/mol. With G13E the “folding stability dG” value was 1.2 kcal/mol. For G13L, the “folding stability dG” value was 0.825 kcal/mol. For I4C, the “folding stability dG” value was 2.58 kcal/mol. In the case of I4P, the “folding stability dG” value is reported as -0.054 kcal/mol. With I4Y the “folding stability dG” value was 2.98 kcal/mol. With I4A the “folding stability dG” value was 0.908 kcal/mol. For I4S, the “folding stability dG” value was 0.94 kcal/mol. In the case of I4G, the “folding stability dG” value is reported as 0.464 kcal/mol. In the case of I4D, the “folding stability dG” value is reported as 1.12 kcal/mol. For I4W, the “folding stability dG” value was 2.71 kcal/mol. In the case of I4K, the “folding stability dG” value is reported as 0.841 kcal/mol. In the case of I4H, the “folding stability dG” value is reported as 1.74 kcal/mol. For I4M, the “folding stability dG” value was 2.52 kcal/mol. For I4T, the “folding stability dG” value was 2.35 kcal/mol. With I4Q the “folding stability dG” value was 1.21 kcal/mol. For I4L, the “folding stability dG” value was 3 kcal/mol. With I4E the “folding stability dG” value was 1.53 kcal/mol. With I4N the “folding stability dG” value was 0.755 kcal/mol. With I4R the “folding stability dG” value was 0.874 kcal/mol. For I4V, the “folding stability dG” value was 3.08 kcal/mol. In the case of I4F, the “folding stability dG” value is reported as 2.76 kcal/mol. For I14G, the “folding stability dG” value was 2.9 kcal/mol. With I14F the “folding stability dG” value was 2.99 kcal/mol. In the case of I14H, the “folding stability dG” value is reported as 3.13 kcal/mol. For I14C, the “folding stability dG” value was 4.14 kcal/mol. With I14K the “folding stability dG” value was 3.81 kcal/mol. For I14E, the “folding stability dG” value was 2.98 kcal/mol. In the case of I14M, the “folding stability dG” value is reported as 3.36 kcal/mol. For I14Q, the “folding stability dG” value was 3.67 kcal/mol. For I14S, the “folding stability dG” value was 3.09 kcal/mol. With I14L the “folding stability dG” value was 3.51 kcal/mol. For I14A, the “folding stability dG” value was 3.22 kcal/mol. In the case of I14P, the “folding stability dG” value is reported as 2.57 kcal/mol. In the case of I14N, the “folding stability dG” value is reported as 3.02 kcal/mol. In the case of I14D, the “folding stability dG” value is reported as 2.68 kcal/mol. For D12Y, the “folding stability dG” value was 3.86 kcal/mol. With D12R the “folding stability dG” value was 4.19 kcal/mol. For D12I, the “folding stability dG” value was 4.38 kcal/mol. With D12H the “folding stability dG” value was 4.08 kcal/mol.
